# B1: Human β-glucuronidase (enzyme, UniProt P08236 23-651, looked up)
# chain: LQGGMLYPQESPSRECKELDGLWSFRADFSDNRRRGFEEQWYRRPLWESGPTVDMPVPSSFNDISQDWRLRHFVGWVWYEREVILPERWTQDLRTRVVLRIGSAHSYAIVWVNGVDTLEHEGGYLPFEADISNLVQVGPLPSRLRITIAINNTLTPTTLPPGTIQYLTDTSKYPKGYFVQNTYFDFFNYAGLQRSVLLYTTPTTYIDDITVTTSVEQDSGLVNYQISVKGSNLFKLEVRLLDAENKVVANGTGTQGQLKVPGVSLWWPYLMHERPAYLYSLEVQLTAQTSLGPVSDFYTLPVGIRTVAVTKSQFLINGKPFYFHGVNKHEDADIRGKGFDWPLLVKDFNLLRWLGANAFRTSHYPYAEEVMQMCDRYGIVVIDECPGVGLALPQFFNNVSLHHHMQVMEEVVRRDKNHPAVVMWSVANEPASHLESAGYYLKMVIAHTKSLDPSRPVTFVSNSNYAADKGAPYVDVICLNSYYSWYHDYGHLELIQLQLATQFENWYKKYQKPIIQSEYGAETIAGFHQDPPLMFTEEYQKSLLEQYHLGLDQKRRKYVVGELIWNFADFMTEQSPTRVLGNKKGIFTRQRQPKSAAFLLRERYWKIANETRYPHSVAKSQCLENSLFT
# modifications: N-linked oligosaccharide at Asn173 (six mannose, one β-D-mannose, three N-acetyl glucosamine); single N-acetyl-glucopyranose at Asn272 (as seen in the electron density)
# notes: β-glucuronidase, human, UniProt P08236; secreted enzyme; the final model holds residues 22 to 631 of each subunit; Homotetramer (subunits A, B, D, E) in the crystal; also called GUS; human GUS; source: CHO-K1, stably transfected, secreted
# Target: the molecule itself
# Test: crystal structure; vapor diffusion, 50 mM Tris pH 7.5, 15% MPD, 25°C; four monomers (A, B, D, E) in the asymmetric unit; refined to 1.7 Å
protein,measurement,value
B1,stoichiometry N,4

# From publication PMC3834196, “High Resolution Crystal Structure of Human β-Glucuronidase Reveals Structural Basis of Lysosome Targeting” (PLoS ONE, 2013)
